Assay results: patent US9402875B2, “Amidated dopamine neuron stimulating peptide restoration of mitochondrial activity” (University of Kentucky Research Foundation, priority 2006, dated 2016)

Assays:
young and aged rats = conditions: Hebert et al. 1996, 1997, cited from earlier work
MN9D dopaminergic cells [1] = assay: TUNEL assay, protection against 6-OHDA toxicity; type: cell-based; conditions: 1 ng/mL for 1 hour before 100 μM 6-OHDA for 15 min; at 24 h
Protocol: (§1) MN9D Cell Cultures: The MN9D cell line has been described by Choi (1991) Brain Res. 552:67-76 and was a gift from Michael Zigmond. Cells were cultured in DMEM supplemented with 10% Fetal Bovine Serum (FBS, Hyclone), 50 U/mL penicillin and streptomycin. For experiments, the cells were plated on 24-well poly-D-lysine in DMEM with 1% (v/v) penicillin-streptomycin. The cells were grown at 37° C. in 5% CO2.
Terminal dUTP Nick-End Labeling (TUNEL) Assay in MN9D Cells: After treatment with DNSP-11, MN9D cells were fixed and labelled to assess degenerative nuclear changes as indicated by the extent of high-molecular weight DNA strand breaks. DNA fragmentation was detected by using steptavidin-horseradish peroxidise conjugate followed by the substrate diaminobenzidine (DAB) generating a colored precipitate. Ratios between apoptotic and total cells were determined (4 random fields/well; 4 wells/ group). Experiments were repeated 3 times.
To evaluate DNSP-11's neuroprotective properties, DNSP-11 was compared to GDNF in its protection against 6-OHDA-induced toxicity in the dopaminergic cell line, MN9D. MN9D dopaminergic cells were incubated for 1 hour with either citrate buffer (control), 1 ng/mL of DNSP-11 or GDNF prior to 100 μM 6-OHDA exposure for 15 min. […]

[2] = system: E14 SD rat embryo primary dopaminergic neurons from the ventral mesencephalon; type: cell-based
Protocol: DNSP-11 treatment of Mesencephalic Cells: Timed pregnant SD rats (Harlan) were used to obtain the ventral mesencephalon from E14 fetuses. The dissected tissue was collected in cold Neurobasal™ medium and rinsed twice with cold Dulbecco's PBS. The cells were chemically (TrypLE®) and mechanically dissociated to yield a single cell suspension. The solution was centrifuged at 169 g for 6 minutes and the pellet was resuspended in Dulbecco's Modified Eagle Medium (DMEM). Cells were plated in a 25 μL micro-island at a density of 4000 cells/μL on poly-D-lysine coated 24-well plates (Sigma). Following adherence, cells were supplemented with warm NEUROBASAL™ media containing 2 mM glutamine, 1×N2, and 100 units of penicillin/streptomycin. Neurotrophic compounds were added at each media addition, including initial plating and DIV 2. A dose response of the peptides (0.03 ng to 10 ng/mL) was added to a 24-well plate following media supplementation.
The neurotrophic effects of DNSP-11 were studied by comparing its effects to the well-known effects of GDNF on the maintenance of primary mesencephalic cell cultures from E14 SD rat embryos. E14 SD rat embryo primary dopaminergic neurons from the ventral mesencephalon were grown for 5 days in vitro and neurotrophic molecules were added at each media change, including initial plating and day 2. […] These effects were similar to those observed for GDNF in these cells, including an increase in the size of TH+ neurons, which was not observed for DNSP-11 (Table 4).
In Table 1, cell survival and morphological parameters were quantified for control (citrate buffer) and experimental (0.1 ng/ml GDNF or 0.1 ng/ml DNSP-11) conditions. For morphology, five fields per well (minimum of 15 cells/field; 3-4 independent experiments) were photographed at 20× magnification and quantified using a Bioquant Image Analysis System. […] Soma size was not increased by the addition of DNSP-11. A one-way ANOVA was used to test for significance among groups, followed by a Newman-Keuls post hoc analysis. Significance between control and experimental conditions was determined at *p<0.05 and **p<0.01.

MN9D dopaminergic cells [3] = assay: Caspase-3 activity assay, protection against 6-OHDA toxicity; type: cell-based; conditions: 1 ng/mL for 1 hour before 100 μM 6-OHDA for 15 min; at 3 h
Protocol: as §1
Caspase-3 Activity Assay in MN9D Cells: MN9D cells were plated to 100,000 cells/well. Cell cultures were exposed to DNSP-11 (1 ng/mL) or buffer for 1 hour prior to 15 min 100 μM 6-OHDA exposure. Caspase-3 activity was monitored after 3 hours by fluorescence (excitation/emission 496/520 nm) using the Enz Chek Caspase-3 kit. Protein levels of lysed cells were measured by BCA assay (BioRad) and normalized for every experiment. Data expressed as % control and repeated a minimum of 3 times.
To evaluate DNSP-11's neuroprotective properties, DNSP-11 was compared to GDNF in its protection against 6-OHDA-induced toxicity in the dopaminergic cell line, MN9D. MN9D dopaminergic cells were incubated for 1 hour with either citrate buffer (control), 1 ng/mL of DNSP-11 or GDNF prior to 100 μM 6-OHDA exposure for 15 min. Data are +SD, one-way ANOVA with Tukey's post hoc analysis, *p<0.05, **p<0.01, ***p<0.001 vs. control; #p<0.05, ##p<0.01, ###p<0.001 vs. 6-OHDA.

Erk1/2 = assay: ERK1/2 activation by western blot; type: cell-based; conditions: DNSP-11 0.1 uM or 1 uM or GDNF 50 ng/ml for 20 minutes
Protocol: MN9D and B65 cell were cultured in DMEM; 11995 (containing pyridoxol HCl; Sigma, St. Louis, Mo.) supplemented with 10% fetal bovine serum (HyClone, Logan, Utah), 50 U/mL penicillin and streptomycin with DNSP-11 (0.1 uM or 1 uM) or GDNF (50 ng/ml) for 20 minutes. The cells were then solubilized in Triton-X-100/glycerol lysis buffer and subjected to electrophoresis and western blotting as partially described previously (Jiang et al., Mol Biol Cell 14:859-70 (2003)). To detect phosphorylated Erk (#4377 Cell Signaling) and ERK (#4696 Cell Signaling) by immunoblotting, the cells were directly lysed in the sample loading buffer. Secondary IRDye 700X and IRDye800 conjugated, fluorescent antibodies (Rockland Inc.) were used to detect signal with Odyssey v3.0 scanning software. Several blots were analyzed to determine the linear range of the fluorescence signals, and quantifications were performed using densitometry analysis.

GAPDH = GAPDH (Homo sapiens, UniProt P04406); assay: Gel filtration analysis of interaction between GAPDH and GDNF; type: binding; conditions: equimolar solution, pre-equilibrated 1 h, Sephacryl S-200
GAPDH, sequence (P04406 2-335 limits assumed, species assumed): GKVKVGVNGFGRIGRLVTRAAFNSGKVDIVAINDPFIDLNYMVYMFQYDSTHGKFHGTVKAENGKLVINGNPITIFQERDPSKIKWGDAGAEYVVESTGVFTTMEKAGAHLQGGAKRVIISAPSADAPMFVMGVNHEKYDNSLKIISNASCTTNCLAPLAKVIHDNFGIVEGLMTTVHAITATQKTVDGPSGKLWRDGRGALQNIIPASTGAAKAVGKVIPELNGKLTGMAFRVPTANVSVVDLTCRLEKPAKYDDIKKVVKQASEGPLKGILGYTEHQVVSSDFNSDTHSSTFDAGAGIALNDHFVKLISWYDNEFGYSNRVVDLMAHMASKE
Protocol: A gel filtration study was performed using a 120 mL Sephacryl S-200 column at a constant 1 mL/min flow rate. Individual 300 μM solutions of GAPDH (˜150 kDa; FIG. 14, dotted line) or GDNF (˜30 kDa; FIG. 14, dashed line) eluted at expected retention times for their sizes of 50 min (FIG. 14, star) and 64 min (FIG. 14, pound sign), respectively. When a pre-equilibrated (1 h), equimolar solution of GAPDH and GDNF was analyzed by gel filtration chromatography, two equally intense peaks were observed (FIG. 14, solid line) with retention times identical to the individual solutions.

B1: GDNF: mature glial cell line-derived neurotrophic factor, homodimer of 32-42 kDa, comparator (protein, listed as Homo sapiens)
chain: SPDKQMAVLPRRERNRQAAAANPENSRGKGRRGQRGKNRGCVLTAIHLNVTDLGLGYETKEELIFRYCSGSCDAAETTYDKILKNLSRNRRLVSDKVGQACCRPIAFDDDLSFLDDNLVYHILRKHSAKRCGCI
modifications: homodimer
notes: mature glial cell line-derived neurotrophic factor, homodimer of 32-42 kDa, comparator
For B1, which “augmentation of evoked release of dopamine” value (young and aged rats) is on record?
Its value is “over 100%”.

And the “increase of basal levels of DOPAC” value (young and aged rats; young and aged rats)?
Its value is 20-25%.

And the “percent of TUNEL positive cells” value (MN9D dopaminergic cells [1])?
Its value is “significant reduction”.

What about the Cell survival ([2]; 0.1 ng/ml, 5 days in vitro, control 100) of the same molecule?
The Cell survival was “*158 ± 12”.

What about the “Average branches per neuron” value ([2]; 0.1 ng/ml, controls 3.8 ± 0.2 (GDNF), 3.1 ± 0.2 (DNSP-11)) of the same molecule?
The value was “**4.7 ± 0.2”.

What about the “Soma size (um^2)” value ([2]; 0.1 ng/ml, controls 171 ± 4 (GDNF), 168 ± 3 (DNSP-11)) of the same molecule?
Its value is 177 ± 4 um^2.

What about the “Combined neurite length (um)” value ([2]; 0.1 ng/ml, controls 242 ± 12 (GDNF), 222 ± 11 (DNSP-11)) of the same molecule?
Its value is “**310 ± 16 um”.

What about the “TH+ neuron counts” value ([2]; 0.03, 0.1, 1.0 and 10 ng/ml) of the same molecule?
The value was “significantly increase”.

What about the caspase-3 activity (MN9D dopaminergic cells [3]) of the same molecule?
Its caspase-3 activity is “significant reduction”.

What about the “phosphorylation of Erk1/2 (ratio of phosphorylated to non-phosphorylated)” value (Erk1/2; B65 cells) of the same molecule?
Its value is “elevated levels of activated Erk”.

What about the “phosphorylation of Erk1/2 (ratio of phosphorylated to non-phosphorylated)” value (Erk1/2; MN9D cells) of the same molecule?
The value was “elevated levels of activated Erk”.

And the “interaction with GAPDH in solution” value (GAPDH)?
Its value is “does not interact”.
